# Assay: yeast display, Sf9 membrane polyspecificity reagent, FACS + sequencing; frameworks hold sequencing errors
# In short: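 Synthetic nanobody libraries on Saccharomyces cerevisiae BJ5465 were galactose-induced for 36–48 hours, stained 1 hour at 4 °C with 10% biotinylated, detergent-solubilized Sf9 membrane reagent and enriched on streptavidin microbeads. FACS then separated cells into low and high (top ~1%) gates by anti-HA (expression) and streptavidin (reagent binding) fluorescence. Genes were colony-PCR amplified, MiSeq 2 × 250 sequenced and CDR-length filtered. A clone's polyreactivity label is that of its gate of origin.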
row,Sequence,polyreactivity (PSR sort gate)
1,QVQLVESGGGLVQAGGSLRLSCAASGRTFRTYAMGWYRQAPGKERELVAITTSGGSTYYADSVKGRFTISRDNAKNTVYLQMNSLKPEDTAVYYGAAQWRSYYDQYGYDYWGQGTQVTVSS,low polyreactivity
2,QVQLVESGGGLVQAGGSLRLSCAASGRTFRTYAMGWYRQAPGKERELVASISVGGGSTYYADSVKGRFTISRDNAKNTVYLQMNSLKPEDTAVYYCAVRSYSPRSRGMGYWGQGTQVTVSS,high polyreactivity
3,QVQLVESGGGLVQAGGSLRLSCAASGRTFRTYTMGWYRQAPGKEREFVAAIDRTGGSTYYADSVKGRFTISRDNAKNTVYLQMNSLKPEDTAVYYCAARFGSGFNYWGQGTQVTVSS,high polyreactivity
4,QVQLVESGGGLVQAGGSLRLSCAASGRTFRTYVMGWYRQAPGKERELVAAITWSGGRTYYADSVKGRFTISRDNAKNTVYLQMNSLKPEDTAVYYCATQPTYYLRSYGLDYWGQGTQVTVSS,high polyreactivity
5,QVQLVESGGGLVQAGGSLRLSCAASGRTFRVYAMGWYRQAPGKERELVAAISGSGGSTYYADSLKGRFTISRDNAKNTVYLQMNSLKPDDTAVYYCAARYFGPGWRDRDYNYWAQGTQVTVSS,high polyreactivity
6,QVQLVESGGGLVQAGGSLRLSCAASGRTFRVYAMGWYRQAPGKERELVATITSSGGSTYYADSVKGRLTISRDNAMNTVDLQMNSLKPEDTAGYYCNVSVYYKYVSSYYYWGQGTQVTVSS,low polyreactivity
7,QVQLVESGGGLVQAGGSLRLSCAASGRTFRVYAMGWYRQAPGKERELVATLTGRGGSTDYADSVKGRFTISRDNAKNTVYLQMNILKPEDTAVYYCAAVGVSRRADPAWAGDYWGQGTQVTVSS,high polyreactivity
8,QVQLVESGGGLVQAGGSLRLSCAASGRTFRWNAMGWYRPAPGKERELVAAISSGGSTYYADSVKGRFTISRDNAKNTVYLQMNSLKPEDTAVYYCNKYYVRAYDTQEYDYWGQGTQVTVSS,high polyreactivity
9,QVQLVESGGGLVQAGGSLRLSCAASGRTFRWNAMGWYRQAPGKERELVATIRSGDSTNYADSVKGRFTISRDNAKNTVYLQMNSLKPEDTAVYYCAAEGVSKVYWGYFGSYDYWGQGTQVTVSS,low polyreactivity
10,QVQLVESGGGLVQAGGSLRLSCAASGRTFRWNGMGWYRQAPGKERELVAVINRGGSTTYADSVKGRFTISRDNAKNTVYLQMNSLKPEDTAVYYCAKDHYYAGTWRYGYWGQGTQVTVSS,high polyreactivity
11,QVQLVESGGGLVQAGGSLRLSCAASGRTFRWYAMGWYRQAPGKERELVAAINPGGSTNYADSVKGRFTISRDNAKNSVYLQMNSLKPEDTAVYYCNAAGYDALTHNYYWGQGTQVTVSS,low polyreactivity
12,QVQLVESGGGLVQAGGSLRLSCAASGRTFRWYAMGWYRQAPGKERELVAAITSDGSTYYADSVKGRFTISRDNAKNTVYLQMNSLKPEDTAVYYCNAAGRYAFPFGYNYWGQGTQVTVSS,high polyreactivity
13,QVQLVESGGGLVQAGGSLRLSCAASGRTFRWYAMGWYRQAPGKERELVAAITSSSSTNYADSVKGRFTISRDNAKNTVYLQMNSLKPEDTAVYYCAKGWNWYDLGESGYWGQGTQVTVSS,low polyreactivity
14,QVQLVESGGGLVQAGGSLRLSCAASGRTFRWYAMGWYRQAPGKERELVADISSVGSTDYADSVKGRFTISRDNAKNTVYLQMNSLKPEDTAVYDCAADFSPRRYHNRSFGYWGHGTQVTVSS,low polyreactivity
15,QVQLVESGGGLVQAGGSLRLSCAASGRTFRWYAMGWYRQAPGKETELVAAINPGGSTNYADSVKGRFTISRDNAKNTVYLQMNSLKPEDTAVYYCNAAGYDALTHNYYWGQCTQVTVSS,low polyreactivity
16,QVQLVESGGGLVQAGGSLRLSCAASGRTFRWYTMGWYRQAPGKERELVAAITSRGGSTYADSVKGRFTISRDNAKNTVYLQMNSMKPEDTAVYYCNAARTYQYDYWGQGTQVTVSS,high polyreactivity
17,QVQLVESGGGLVQAGGSLRLSCAASGRTFRYNAMGWYRQAPGKERDLVAAISYSGGRTNYADSVKGRFTISRDNAKNTVYLQMNSLKPEDTAVYDCATGYAVYLSRRDYWGQGTQVTVSS,high polyreactivity
18,QVQLVESGGGLVQAGGSLRLSCAASGRTFRYNAMGWYRQAPGKERELVAAISTRGGSTYYADSVKGRFTISRDNAKNTVYLQMNSLKPEDTAVYYCAVTPRIPGHFEDYYWGQGTQVTVSS,low polyreactivity
19,QVQLVESGGGLVQAGGSLRLSCAASGRTFRYNAMGWYRQAPGKERELVAGITYNGGSTSYADSVKGRFTISRDNAKNTVYLQMNSLKPEDTAVYYCNVVYNYYGRFGSWGQGTQVTVSS,high polyreactivity
20,QVQLVESGGGLVQAGGSLRLSCAASGRTFRYNDMGWYRQAPGKERELVADITFSGGNTYYADSVKGRFTISRVNAKNTVYLQMNSLKPEDTAVYYCAKRRYYTGGMDYWVQGTQVTVSS,low polyreactivity
21,QVQLVESGGGLVQAGGSLRLSCAASGRTFRYNTMGWYRPAPGKERELVAAISSGGGRTYYADSVKGRFTISRDNAKNTVYLQMNSLIPEDTAVYYCAADRYFRSRRSYEYWGQGTQVTVSS,low polyreactivity
22,QVQLVESGGGLVQAGGSLRLSCAASGRTFRYNTMGWYRQAPGKERELVAAITRSGGTTYYADSVKGRFTISRDNAKNTVYLQMNSLKPEDTSVYYCAAEGQAVRKSARDVFFEEFDYWGHGTQVTVSS,low polyreactivity

row,Sequence,polyreactivity (PSR sort gate)
1,QVQLVESGGGLVQAGGSLRLSCAASGRTFRYYAMGWSRQAPGKERELVASITSGGRTYYADSVKGRFTISRDNAKNTVYLQMNSLKPEDTAVYYCAADTPVTASSPPSDYWGQGTQVTVSS,high polyreactivity
2,QVQLVESGGGLVQAGGSLRLSCAASGRTFRYYAMGWYRPAPGKERELVATITGSGGSTYYADSVKGRFTISRDNAKNTVYLQMNSLKPEDTAVYYCNARKVRYPYRWYDYWGQGTQVTVSS,high polyreactivity
3,QVQLVESGGGLVQAGGSLRLSCAASGRTFRYYAMGWYRQAPGKERELVAAISSRGNTYYADSVKGRFTISRDNAKNTVYLQMNSLKPEDTAVYYCAAYVYRVQYDFDYWGQGTQVTVSS,high polyreactivity
4,QVQLVESGGGLVQAGGSLRLSCAASGRTFRYYAMGWYRQAPGKERELVAAITGSGGSTYYADSVKGRFTISRDNAKNTVYLQMHSLKPEDTAVYYCNTYLSRWSGERDYWGQGTQVTVSS,high polyreactivity
5,QVQLVESGGGLVQAGGSLRLSCAASGRTFRYYAMGWYRQAPGKERELVAGISSSGRTYYADSVKGRFTISRDNAKNTVYLQMNSLKPEDTAVYYCNAVYWPVRPVDRHDYWGQGTQVTVSS,high polyreactivity
6,QVQLVESGGGLVQAGGSLRLSCAASGRTFRYYAMGWYRQAPGKERELVASISSTGGNTYYADSVKGRFTISRDNAKNTVYLQMNSLKPEDTAVYYCAAGAWTRGQYYYWGQGTQVTVSS,high polyreactivity
7,QVQLVESGGGLVQAGGSLRLSCAASGRTFRYYAMGWYRQAPGKERELVASITSGGRTYYADSVKGRFTISRDNAKNTVYLQMNSLKPEDTAVYYCAADRFGIGGKRGNDYWGQGTQVTVSS,high polyreactivity
8,QVQLVESGGGLVQAGGSLRLSCAASGRTFRYYAMGWYRQAPGKEREWDAAISRGDSTHYADSVKGRFTISRDNAKNSVYLQMNSLKPEDTEVYYCAAYRGRSVDRQPYYWGQGTQVTVSS,high polyreactivity
9,QVQLVESGGGLVQAGGSLRLSCAASGRTFRYYAMGWYRQAPGKESELVAAIRTRGASTYYADSVKGRFTISRDNAKNTVYLQMNSLKPEDTAVYYCAKRAHFSSARHVYYIYDYWGQGTQVTVSS,low polyreactivity
10,QVQLVESGGGLVQAGGSLRLSCAASGRTFRYYAMGWYRQAPGKVRELVAAISWNGANTYYADSVKGRFTISRDNAKNTVYLQMNSLKPEDTAVYYCAATYYRWKGYDYWGQGTQVTVSS,high polyreactivity
11,QVQLVESGGGLVQAGGSLRLSCAASGRTFRYYSMGWYRQAPGKERELVATITGSGGSTYYADSVKGRFTISRDNAKNTVYLQMNSLKPEDTAVYYCNARKVRYPYRWYDYWGQGTQVTVSS,high polyreactivity
12,QVQLVESGGGLVQAGGSLRLSCAASGRTFRYYVMGWYRQAPGKERELVAAINRRGDNTYYADSVKGRLTISRDNAKNTVYLQMNSLKPEDTAVYYCAARREPYQYNQYYSWGQGTQVTVSS,high polyreactivity
13,QVQLVESGGGLVQAGGSLRLSCAASGRTFRYYVMGWYRQAPGKERELVAAISRTGGNTYYADSVKGRFTISRDNAKNTVYLQMNSLKPEDTAVYYCNTVRRPSSWRYDYWGQGTQVTVSS,high polyreactivity
14,QVQLVESGGGLVQAGGSLRLSCAASGRTFSANAMGWYRQAPGKERELVATISSGGRTNYADSVKGRFTISRDNAMNTVYLQMNSLKPEDTAVYYCAADFDYAYWDTTYDYWGQGTQVTVSS,low polyreactivity
15,QVQLVESGGGLVQAGGSLRLSCAASGRTFSAYAMGWYRQAPGKERELVARITSVDSTNYADSVKGRFTISRDNAKNTVYLQMNSLKPEDTAVYYCNATFGYPFVDYDDYWGQGTQVTGSS,low polyreactivity
16,QVQLVESGGGLVQAGGSLRLSCAASGRTFSAYAMGWYRQAPGKERELVARITSVDSTNYADSVKGRFTISRDNAKNTVYLQMNSLKPEDTAVYYCNATFGYPFVEYDDYWGQGTQVTVSS,low polyreactivity
17,QVQLVESGGGLVQAGGSLRLSCAASGRTFSDYVMGWYRQAPGKERELVAAINIGGGSTYYADSVKGRFTISRDNAKNTVYLQMNSLKPEDTAVYYCAAESAGSYLDYYWAYGYWGQGTQVTVSS,low polyreactivity
18,QVQLVESGGGLVQAGGSLRLSCAASGRTFSENAMGWYRQAPGKERELVAAISGSGGRTYYADSVKGRFTISRDNAKNTVYLQMNRLKPEDTAVYYCAKVTRYGSTYDYWGQGTQVTVSS,high polyreactivity
19,QVQLVESGGGLVQAGGSLRLSCAASGRTFSFYAMVWYRQAPGKERELVAGIDWDDGSTSYADSVKGRFTISRDNAKNTVYLQMNSLKQEDTAVCYCAADIGYDVYNDYDYWGQGTQVTVSS,low polyreactivity
20,QVQLVESGGGLVQAGGSLRLSCAASGRTFSFYDMGWYRQAPGKERELVAAINSGSSTYYADSVKGRFTISRDNANNTVYLQMNSLKPEDTEVYYCAAEPYFWWQNEYWGQGTQVTVSS,high polyreactivity
21,QVQLVESGGGLVQAGGSLRLSCAASGRTFSGNTMGWYRQAPGKERELVAAISSGGSRTYYADSVKGRFTISRDNAKNTVYLLMNSLKPEDTAVYYCATVSTYYHYRRYDYWGQGTQVTVSS,high polyreactivity

# Source: the nanobody polyreactivity screen of Harvey et al. (2022)
